Experimental findings from patent US6200577A, “Anti-herpesviral agents and assays therefor” (priority 1996, dated 2001) are described below.

Parameters in all cases: species or system HSV-1
Assay [1] has as its target T1, VP16/VP22trunc interaction (Human herpesvirus 1, UniProt P06492).
T1 construct: Plasmid pETVP16 was used to express full-length VP16 under the control of the T7 RNA polymerase promoter; made in house; host or cells: E. coli BL21(DE3)
The experiment in a line: ELISA of peptide inhibition of VP16 binding to VP22trunc. The settings on record: for Inhibition of VP16 binding to VP22trunc in ELISA: D and E pure preparations, effect at 100 and 500 μg/ml, VP16 1.6 μg/ml, 160 ng VP22trunc, FIG. 9; for IC50: converted from μg/ml, maximum molarities, read-out: Molarity for 50% inhibition of VP16 binding (ELISA); for IC50 / Concentration for 50% inhibition of VP16 binding (ELISA): peptides not 100% soluble; for Concentration for 50% inhibition of VP16 binding (ELISA): pure peptide preparations, maximum values. The method, then: FIG. 9 Inhibitory effect of peptides D and E on the VP22trunc-VP16 interaction in ELISAs. Microtitre plates were coated with 160 ng of VP22trunc and blocked with PBS/10% NCS. Before addition to the wells, five-fold dilutions of the peptides, ranging from 500 μg/ml to 1 g/ml, were incubated with VP16 (1.6 μg/ml). Bound VP16 was detected with LP1 at a dilution of 1:1000. The legend for the peptides added is shown to the right of the graph. Values are shown relative to those obtained in the absence of the peptide.
(§1) Dilutions of proteins in PBS were coated overnight onto flat bottomed micro-titre plates (Dynatech) at 37° C. and then blocked with either 2% BSA or 10% new-born calf serum (NCS) in PBS for 1 hour at 37° C. Specific binding of a second protein to the plate-bound protein was performed for 1.5-2 hours at ambient temperature. a Excess secondary protein was removed by washing four times with PBS, 0.3% Tween 20. Bound protein was detected by incubation for 1.5-2 hours with LP1 antibody in PBS, 1% gelatin or PBS, 2% NCS. The bound antibody was detected by incubation for 1 hour at ambient temperature with anti-mouse antibody conjugated to HRP (1:500) and visualised with Smg/ml enzyme substrate 2,2'-azino-bis(3-ethylbenzthiazoline-6-sulphonic acid) (ABTS; Sigma) in citrate-phosphate buffer containing 6 μl hydrogen peroxide in a total volume of 20 ml. Optical densities were measured on a Titertek Multiscan PLUS instrument.
To adopt a more quantitative approach, an ELISA for VP16 binding to VP22trunc was developed. Optimal conditions were determined by coating wells with various quantities of VP22trunc followed by blocking with 2% BSA. Plates were then incubated with dilutions of VP16 and the bound VP16 detected with LP1.
The studies presented above have provided strong evidence in support of peptide inhibition of the interaction between VP16 and VP22. However, quantitative analysis of the ability of peptides to block any interaction is difficult to perform by the above methods. Therefore, using the ELISA system described in Results Section 2(iii) with the exception that PBS/10% NCS was utilised as a blocking agent, the inhibitory effects of peptides D and E were examined. This modification arose due to nonspecific binding of the peptides to wells when BSA was used for blocking (data not shown).
A general note: An ELISA detects its analyte on a solid surface through an enzyme-linked reagent.

Assay [2] deals with T1, VP16/VP22trunc interaction. The experiment in a line: Far Western analysis of peptides blocking VP16 binding to immobilised VP22trunc. The settings on record: for Blocking of VP16 binding to immobilised VP22trunc (Far Western), crude peptides: strips pre-incubated with 1 mg of crude peptide, FIG. 7A; for Blocking of VP16 binding to immobilised VP22trunc (Far Western), repeat with purified peptides D and E: strips pre-incubated with 1 mg peptide, FIG. 7B. The method, then:
FIG. 7 Far Western analysis of the ability of peptides to block the interaction between VP16 and immobilised VP22trunc. Purified VP22trunc was added to partially purified extract of VP16 and the sample run on a 12% polyacrylamide gel. Proteins were then transferred to nitrocellulose membrane and the blot was cut into strips, with each strip containing approximately 1 g of VP22trunc. In (A), strips were pre-incubated with 1 mg of each of the following peptides: lane 2, no peptide, lane 3, peptide C; lane 4, peptide D; lane 5, peptide E; lane 6, peptide F; lane 7, peptides D and E; lane 8, peptides C and F. In (B) strips were pre-incubated with 1 mg of each of the following peptides: lane 2, no peptide, lane 3, peptide C; lane 4, purified peptide D; lane 5, purified peptide E; lane 6, peptide F. 24 g of pure VP16 was then added to strips 2 to 8 in (A) and strips 2 to 6 in (B), followed by incubation with LP1 antibody (1:1000 dilution). As a control, portions of the blot were incubated with LP1 or the 9220 antibody at a dilution of 1:1000 (lane 1 for LP1 in A and B; lane 9 in A and lane 7 in B for 9220). The apparent molecular weights of VP16 (65 KDa) and the dimer (32 KDa) and monomer (16 KDa) forms of VP22trunc are shown.
Following electrophoresis, proteins were electrotransferred to either Hybond or ProBlott (Applied Biosystems) membrane and the membrane was incubated in renaturation buffer (50 mM Tris-HCl, pH 8.0, 150 mM NaCl, 10% glycerol, 1 mM DTT) at 4° C. for 5-6 hours.
For membranes probed with either VP16 or VP22trunc, blocking was performed overnight as described for Western blot analysis. Probing with epitope-tagged VP22 or VP16 was performed in 20 mM Tris-HCl, pH 8.0, 250 mM NaCl for 1.5 hours at ambient temperature. Excess probe was removed by washing 4 times (10 minutes per wash) in 20 mM Tris-HCl, pH8.0, 250 mM NaCl, followed by incubation with the appropriate antibody at a dilution of 1:1000 in TTBS/1% gelatin for 1.5-2 hours. Bound antibody was detected as described for Western blot analysis.
Based on the studies with soluble VP16 and VP22trunc presented above, only a restricted number of peptides were examined by Far Western analysis to identify those that may prevent binding of VP16. Thus, VP22trunc was added to a crude extract of bacterially expressed VP16 and the proteins were electrophoresed on a polyacrylamide gel followed by transfer to a membrane. […] Before the addition of VP16 the blot strips in lanes 3 to 8 were incubated with crude preparations of peptides C, D, E, or E' as well as mixtures of either 0 and E or C and F. When the blot strips were incubated with peptides C and F either singly or in combination, VP16 bindincg to VP22trunc was not prevented (FIG. 7A, lanes 3, 6 and 8).

The next assay addresses T2, VP16 (Human herpesvirus 1, UniProt P06492).
T2 construct: Plasmid pETVP16 was used to express full-length VP16 under the control of the T7 RNA polymerase promoter; made in house; host or cells: E. coli BL21(DE3)
The experiment in a line: ELISA of direct binding of VP16 to plate-coated peptides. The settings on record: wells coated with peptide up to 500 μg/ml; VP16 1.6 μg/ml; FIG. 10. The procedure:
FIG. 10 Binding of VP16 to peptides. Microtitre plates were coated with 5-fold dilutions of peptides ranging from 500 μg/ml to 1 μg/ml and blocked with PBS/10% NCS. VP16 was then added to a final concentration of 1.6 μg/ml and detected with LP1. The legend for the peptides added is shown to the right of the graph.
as §1
To examine whether VP16 could bind directly to the peptides, wells were coated with each peptide (A-J) at a range of concentrations from […] to 500 μg/ml and the plate was then blocked with […]. […] Nonetheless, the data for peptides D and E implicate direct binding of these peptides to VP16 as the mechanism for inhibiting its interaction with VP22. Peptide H also was active in experiments which prevented gB binding to VP22trunc [Section 4 (iii)] and thus also forms an aspect of the invention.

T2 sequence (P06492 whole entry): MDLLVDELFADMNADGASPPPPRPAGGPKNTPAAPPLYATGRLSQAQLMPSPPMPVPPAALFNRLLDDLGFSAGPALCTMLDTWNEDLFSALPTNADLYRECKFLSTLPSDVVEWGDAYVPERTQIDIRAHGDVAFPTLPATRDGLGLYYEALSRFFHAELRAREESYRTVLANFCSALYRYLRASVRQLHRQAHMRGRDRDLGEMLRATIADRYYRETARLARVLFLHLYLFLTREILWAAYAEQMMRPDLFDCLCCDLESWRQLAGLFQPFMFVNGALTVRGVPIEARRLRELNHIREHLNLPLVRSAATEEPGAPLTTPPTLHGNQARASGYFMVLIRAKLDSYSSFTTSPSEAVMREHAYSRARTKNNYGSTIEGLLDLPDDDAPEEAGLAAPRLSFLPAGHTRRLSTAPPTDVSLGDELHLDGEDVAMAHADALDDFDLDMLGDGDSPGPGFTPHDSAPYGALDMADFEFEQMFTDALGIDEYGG
T1 sequence (P06492 whole entry): as above

On to CAAVGRLAAMHARMAAVQLW [Peptide E], for which, in assay [1], the “Inhibition of VP16 binding to VP22trunc in ELISA” value (“Inhibition … in ELISA” for short) is “could inhibit binding of VP16 to VP22trunc”, the IC50 is 44.1 µM and the “Concentration for 50% inhibition of VP16 binding (ELISA)” value stood at 85.7 µg/mL. For the same sequence, in assay [2], the “Blocking of VP16 binding to immobilised VP22trunc (Far Western), crude peptides” value (“Blocking of VP16 binding … crude peptides” below) was “loss of recognition of VP22trunc”; the “Blocking of VP16 binding to immobilised VP22trunc (Far Western), repeat with purified peptides D and E” value (“Blocking … with purified peptides D and E” for short) was “able to block binding of VP16 to VP22trunc”. Besides, the “Direct binding of VP16 to plate-coated peptide (ELISA)” value (“Direct binding of VP16” below) with VP16 is “binding was found with higher concentrations”.
For FSTAPPNPDAPWTPRVAGFN [Peptide C], the “Inhibition … in ELISA” value in assay [1] was “neither peptides B, C nor F had any effect”. Further, in assay [2], the “Blocking of VP16 binding … crude peptides” value was “not prevented”; the “Blocking … with purified peptides D and E” value is recorded as “had no effect”. In addition, the “Direct binding of VP16” value with VP16 was “binding did not occur”.
With TPRVAGFNKRVFCAAVGRLA [Peptide D], in assay [1], the “Inhibition … in ELISA” value was “could inhibit binding of VP16 to VP22trunc”, the IC50 was found to be 99.7 µM and the “Concentration for 50% inhibition of VP16 binding (ELISA)” value was determined as 212.5 µg/mL. Also, in assay [2], the “Blocking of VP16 binding … crude peptides” value is recorded as “loss of recognition of VP22trunc”; the “Blocking … with purified peptides D and E” value was “able to block binding of VP16 to VP22trunc”. The “Direct binding of VP16” value with VP16 is on record as “binding was found with higher concentrations”.
